Laboratory results as given in article PMC9482650, “Quantitative fragmentomics allow affinity mapping of interactomes” (Nature Communications, 2022).

T1: LNX2_3, Q8N448
T1 sequence (Q8N448 463-564, limits assumed, looked up): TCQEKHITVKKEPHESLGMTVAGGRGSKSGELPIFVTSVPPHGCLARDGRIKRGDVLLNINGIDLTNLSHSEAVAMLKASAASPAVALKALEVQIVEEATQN

T2: DLG3_3, Q92796
T2 sequence (Q92796 374-475, limits assumed, looked up): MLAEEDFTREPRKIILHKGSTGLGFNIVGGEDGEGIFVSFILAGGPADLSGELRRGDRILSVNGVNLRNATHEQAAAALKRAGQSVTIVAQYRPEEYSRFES

T3: SNTG2, Q9NY99
T3 sequence (Q9NY99 68-166, limits assumed, looked up): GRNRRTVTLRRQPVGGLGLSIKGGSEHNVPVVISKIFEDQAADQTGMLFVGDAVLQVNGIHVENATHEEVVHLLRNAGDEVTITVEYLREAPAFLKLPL

T4: MPP6, Q9NZW5
T4 sequence (Q9NZW5 125-219, limits assumed, looked up): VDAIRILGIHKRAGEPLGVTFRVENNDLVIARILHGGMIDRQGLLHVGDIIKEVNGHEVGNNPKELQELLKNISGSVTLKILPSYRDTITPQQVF

T5: MPP2, Q14168
T5 sequence (Q14168 180-250, limits assumed, looked up): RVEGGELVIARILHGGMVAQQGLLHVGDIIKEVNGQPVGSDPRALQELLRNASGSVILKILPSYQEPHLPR

T6: SIPA1L2, Q9P2F8
T6 sequence (Q9P2F8 945-1036, limits assumed, looked up): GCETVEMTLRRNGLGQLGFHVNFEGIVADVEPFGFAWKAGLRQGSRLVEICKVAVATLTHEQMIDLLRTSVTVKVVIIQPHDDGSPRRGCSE

T7: RHPN1, Q8TCX5
T7 sequence (Q8TCX5 508-602, limits assumed, looked up): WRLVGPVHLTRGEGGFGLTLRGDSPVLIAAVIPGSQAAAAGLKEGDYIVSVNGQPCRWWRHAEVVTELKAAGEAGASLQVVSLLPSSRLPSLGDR

T8: DLG3_2, Q92796
T8 sequence (Q92796 221-321, limits assumed, looked up): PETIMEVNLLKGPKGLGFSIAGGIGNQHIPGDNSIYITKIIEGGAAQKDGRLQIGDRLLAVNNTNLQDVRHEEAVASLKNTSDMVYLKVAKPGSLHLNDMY

T9: GRIP1_2, Q9Y3R0
T9 sequence (Q9Y3R0 145-248, limits assumed, looked up): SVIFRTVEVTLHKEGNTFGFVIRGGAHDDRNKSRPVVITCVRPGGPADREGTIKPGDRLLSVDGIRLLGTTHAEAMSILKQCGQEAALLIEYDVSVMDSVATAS

T10: CARD11, Q9BXL7
T10 sequence (Q9BXL7 662-765, limits assumed, looked up): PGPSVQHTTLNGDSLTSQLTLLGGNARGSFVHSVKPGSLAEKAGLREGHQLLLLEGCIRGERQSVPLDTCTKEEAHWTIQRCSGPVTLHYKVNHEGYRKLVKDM

T11: MPP7, Q5T2T1
T11 sequence (Q5T2T1 134-230, limits assumed, looked up): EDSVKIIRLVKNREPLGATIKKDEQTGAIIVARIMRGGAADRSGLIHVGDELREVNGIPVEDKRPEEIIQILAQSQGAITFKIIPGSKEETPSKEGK


Columns and labels:
Test in all cases: holdup assay
Design in all cases: key: below the threshold = too weak to quantify, mostly under pKd 3.1 to 4
Conditions in all cases: plain residues with an end cap or a label only (N-terminal biotin on a linker: ado-ado)
PDLIM1, O00151 = target: PDLIM1, O00151
GIPC2, Q8TF65 = target: GIPC2, Q8TF65
LNX2_3, Q8N448 = target: T1, LNX2_3, Q8N448
GRIP2_7, Q9C0E4 = target: GRIP2_7, Q9C0E4
TJP2_1, Q9UDY2 = target: TJP2_1, Q9UDY2
DLG3_3, Q92796 = target: T2, DLG3_3, Q92796
GRIP2_5, Q9C0E4 = target: GRIP2_5, Q9C0E4
SNTG2, Q9NY99 = target: T3, SNTG2, Q9NY99
FRMPD2_2, Q68DX3 = target: FRMPD2_2, Q68DX3
IL16_4, Q14005 = target: IL16_4, Q14005
MPP6, Q9NZW5 = target: T4, MPP6, Q9NZW5
NOS1, P29475 = target: NOS1, P29475
MPP2, Q14168 = target: T5, MPP2, Q14168
SIPA1L2, Q9P2F8 = target: T6, SIPA1L2, Q9P2F8
RHPN1, Q8TCX5 = target: T7, RHPN1, Q8TCX5
GRIP2_4, Q9C0E4 = target: GRIP2_4, Q9C0E4
SCRIB_1, Q14160 = target: SCRIB_1, Q14160
NHERF4_1, Q86UT5-2 = target: NHERF4_1, Q86UT5-2
DLG3_2, Q92796 = target: T8, DLG3_2, Q92796
ARHGEF12, Q9NZN5-2 = target: ARHGEF12, Q9NZN5-2
PTPN3, P26045 = target: PTPN3, P26045
GRIP1_2, Q9Y3R0 = target: T9, GRIP1_2, Q9Y3R0
Inadl_4, Q8NI35 = target: Inadl_4, Q8NI35
CARD11, Q9BXL7 = target: T10, CARD11, Q9BXL7
SCRIB_3, Q14160 = target: SCRIB_3, Q14160
MPP7, Q5T2T1 = target: T11, MPP7, Q5T2T1

Sequence of Inadl_4, Q8NI35 (Q8NI35 547-651): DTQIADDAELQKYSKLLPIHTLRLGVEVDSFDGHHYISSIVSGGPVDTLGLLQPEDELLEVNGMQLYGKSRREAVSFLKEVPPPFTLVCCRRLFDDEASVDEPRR
Sequence of GRIP2_4, Q9C0E4 (Q9C0E4 446-548): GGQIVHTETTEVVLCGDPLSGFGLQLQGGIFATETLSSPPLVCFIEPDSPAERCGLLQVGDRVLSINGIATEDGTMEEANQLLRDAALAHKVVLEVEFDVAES
Sequence of GRIP2_5, Q9C0E4 (Q9C0E4 544-642): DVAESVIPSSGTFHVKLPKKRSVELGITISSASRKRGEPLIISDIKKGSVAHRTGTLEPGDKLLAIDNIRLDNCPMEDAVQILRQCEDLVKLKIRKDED
Sequence of NHERF4_1, Q86UT5-2 (Q86UT5 other isoform, or with tags, fused parts or gaps): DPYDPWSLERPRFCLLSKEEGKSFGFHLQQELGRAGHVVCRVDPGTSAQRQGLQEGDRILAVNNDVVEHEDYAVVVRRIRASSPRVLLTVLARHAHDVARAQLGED
Sequence of NOS1, P29475 (P29475 9-101): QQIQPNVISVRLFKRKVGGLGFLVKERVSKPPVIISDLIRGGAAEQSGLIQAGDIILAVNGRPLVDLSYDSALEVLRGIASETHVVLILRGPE
Sequence of IL16_4, Q14005 (Q14005 1229-1329): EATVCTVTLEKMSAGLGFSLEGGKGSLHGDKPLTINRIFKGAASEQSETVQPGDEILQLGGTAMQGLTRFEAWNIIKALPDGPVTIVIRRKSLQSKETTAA
Sequence of FRMPD2_2, Q68DX3 (Q68DX3 944-1038): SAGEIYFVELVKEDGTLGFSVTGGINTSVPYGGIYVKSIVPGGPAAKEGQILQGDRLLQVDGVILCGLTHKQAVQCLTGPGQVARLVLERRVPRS
Sequence of TJP2_1, Q9UDY2 (Q9UDY2 24-128): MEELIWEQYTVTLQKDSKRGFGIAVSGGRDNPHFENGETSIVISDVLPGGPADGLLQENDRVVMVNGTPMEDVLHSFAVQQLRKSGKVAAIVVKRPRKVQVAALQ
Sequence of SCRIB_1, Q14160 (Q14160 718-814): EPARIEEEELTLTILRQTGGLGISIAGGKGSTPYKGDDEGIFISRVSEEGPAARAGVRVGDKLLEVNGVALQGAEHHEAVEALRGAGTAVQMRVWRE
Sequence of SCRIB_3, Q14160 (Q14160 999-1103): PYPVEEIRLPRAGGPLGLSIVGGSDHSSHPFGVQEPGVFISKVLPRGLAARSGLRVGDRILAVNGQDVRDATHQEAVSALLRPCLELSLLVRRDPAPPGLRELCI
Sequence of PTPN3, P26045 (P26045 505-587): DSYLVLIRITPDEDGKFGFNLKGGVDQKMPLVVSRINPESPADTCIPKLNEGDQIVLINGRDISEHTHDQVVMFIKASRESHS
Sequence of GRIP2_7, Q9C0E4 (Q9C0E4 934-1023): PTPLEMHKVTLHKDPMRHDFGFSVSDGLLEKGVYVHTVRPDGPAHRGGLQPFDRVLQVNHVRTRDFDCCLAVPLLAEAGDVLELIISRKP
Sequence of GIPC2, Q8TF65 (Q8TF65 112-203): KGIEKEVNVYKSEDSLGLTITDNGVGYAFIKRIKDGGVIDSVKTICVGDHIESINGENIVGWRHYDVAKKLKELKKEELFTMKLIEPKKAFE
Sequence of PDLIM1, O00151 (O00151 1-87): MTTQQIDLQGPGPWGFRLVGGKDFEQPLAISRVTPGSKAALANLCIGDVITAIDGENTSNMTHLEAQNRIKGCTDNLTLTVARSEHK
Sequence of ARHGEF12, Q9NZN5-2 (Q9NZN5 other isoform, or with tags, fused parts or gaps): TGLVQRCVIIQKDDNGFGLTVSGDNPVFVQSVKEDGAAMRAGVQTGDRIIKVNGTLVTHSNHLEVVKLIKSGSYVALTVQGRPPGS

Binder | pKd (PDLIM1, O00151) | pKd (GIPC2, Q8TF65) | pKd (LNX2_3, Q8N448) | pKd (GRIP2_7, Q9C0E4) | pKd (TJP2_1, Q9UDY2) | pKd (DLG3_3, Q92796) | pKd (GRIP2_5, Q9C0E4) | pKd (SNTG2, Q9NY99) | pKd (FRMPD2_2, Q68DX3) | pKd (IL16_4, Q14005) | pKd (MPP6, Q9NZW5) | pKd (NOS1, P29475) | pKd (MPP2, Q14168) | pKd (SIPA1L2, Q9P2F8) | pKd (RHPN1, Q8TCX5) | pKd (GRIP2_4, Q9C0E4) | pKd (SCRIB_1, Q14160) | pKd (NHERF4_1, Q86UT5-2) | pKd (DLG3_2, Q92796) | pKd (ARHGEF12, Q9NZN5-2) | further results
DSATVRTYSC [PPFIA1, Q13136] | below the threshold | below the threshold | below the threshold | 4.15 | below the threshold | below the threshold | below the threshold | below the threshold | below the threshold | 3.54 | below the threshold | below the threshold | below the threshold | below the threshold | below the threshold | below the threshold | below the threshold | 3.98 | 4.08 | below the threshold | pKd (PTPN3, P26045): 3.68; pKd (GRIP1_2, Q9Y3R0): below the threshold; pKd (Inadl_4, Q8NI35): below the threshold; pKd (CARD11, Q9BXL7): below the threshold; pKd (SCRIB_3, Q14160): below the threshold; pKd (MPP7, Q5T2T1): 3.92
ETSLVKGIDI [DENND5A, Q6IQ26] | below the threshold | 3.54 | below the threshold | 3.58 | below the threshold | below the threshold | below the threshold | below the threshold | below the threshold | below the threshold | below the threshold | 3.52 | below the threshold | below the threshold | 3.56 | below the threshold | below the threshold | 3.59 | 3.57 | 4.17 | pKd (PTPN3, P26045): below the threshold; pKd (GRIP1_2, Q9Y3R0): below the threshold; pKd (Inadl_4, Q8NI35): below the threshold; pKd (CARD11, Q9BXL7): below the threshold; pKd (SCRIB_3, Q14160): 3.51; pKd (MPP7, Q5T2T1): 4.47
NASRTRITFV [MCM7, P33993] | below the threshold | below the threshold | below the threshold | 4.27 | 5.34 | 4.47 | below the threshold | 3.84 | 5.11 | 3.67 | below the threshold | 3.84 | below the threshold | below the threshold | 4.48 | below the threshold | 4.26 | 4.12 | 4.75 | 4.46 | pKd (PTPN3, P26045): 4.71; pKd (GRIP1_2, Q9Y3R0): below the threshold; pKd (Inadl_4, Q8NI35): below the threshold; pKd (CARD11, Q9BXL7): below the threshold; pKd (SCRIB_3, Q14160): 4.37; pKd (MPP7, Q5T2T1): below the threshold
QSPPNIYYKV [EFNB3, Q15768] | below the threshold | below the threshold | below the threshold | 4.41 | below the threshold | 3.56 | below the threshold | 3.7 | below the threshold | 3.76 | below the threshold | 3.53 | below the threshold | below the threshold | below the threshold | below the threshold | below the threshold | below the threshold | below the threshold | below the threshold | pKd (PTPN3, P26045): 4.05; pKd (GRIP1_2, Q9Y3R0): 3.52; pKd (Inadl_4, Q8NI35): 3.51; pKd (CARD11, Q9BXL7): below the threshold; pKd (SCRIB_3, Q14160): below the threshold; pKd (MPP7, Q5T2T1): 3.66

Second part, led by results:

pKd (PDLIM1, O00151) | pKd (GIPC2, Q8TF65) | pKd (LNX2_3, Q8N448) | pKd (GRIP2_7, Q9C0E4) | pKd (TJP2_1, Q9UDY2) | pKd (DLG3_3, Q92796) | pKd (GRIP2_5, Q9C0E4) | pKd (SNTG2, Q9NY99) | pKd (FRMPD2_2, Q68DX3) | pKd (IL16_4, Q14005) | pKd (MPP6, Q9NZW5) | pKd (NOS1, P29475) | pKd (MPP2, Q14168) | pKd (SIPA1L2, Q9P2F8) | pKd (RHPN1, Q8TCX5) | pKd (GRIP2_4, Q9C0E4) | pKd (SCRIB_1, Q14160) | pKd (NHERF4_1, Q86UT5-2) | pKd (DLG3_2, Q92796) | pKd (ARHGEF12, Q9NZN5-2) | Binder | further results
below the threshold | below the threshold | below the threshold | below the threshold | below the threshold | below the threshold | below the threshold | below the threshold | 3.48 | below the threshold | 3.57 | 3.69 | below the threshold | below the threshold | 4.35 | below the threshold | 3.84 | below the threshold | 4.11 | 4.38 | PAPGQHTTQI [STK16, O75716] | pKd (PTPN3, P26045): 4.21; pKd (GRIP1_2, Q9Y3R0): below the threshold; pKd (Inadl_4, Q8NI35): below the threshold; pKd (CARD11, Q9BXL7): below the threshold; pKd (SCRIB_3, Q14160): 4.18; pKd (MPP7, Q5T2T1): below the threshold
below the threshold | below the threshold | below the threshold | below the threshold | below the threshold | below the threshold | below the threshold | 3.62 | below the threshold | 3.84 | below the threshold | below the threshold | below the threshold | below the threshold | 4.36 | below the threshold | 4.06 | 4.3 | 3.75 | 4.62 | ANGLMQTSKL [SSTR5, P35346] | pKd (PTPN3, P26045): 4.1; pKd (GRIP1_2, Q9Y3R0): below the threshold; pKd (Inadl_4, Q8NI35): below the threshold; pKd (CARD11, Q9BXL7): below the threshold; pKd (SCRIB_3, Q14160): 3.5; pKd (MPP7, Q5T2T1): below the threshold
